Results as given in patent publication US20210347873A1 (SHANGHAI PHARMAEXPLORER, published 2021).

T1: human APRIL protein (human, UniProt O75888 105-250, limits assumed)
T1 construct: Bought protein; also called recombinant APRIL protein
T1 sequence (looked up): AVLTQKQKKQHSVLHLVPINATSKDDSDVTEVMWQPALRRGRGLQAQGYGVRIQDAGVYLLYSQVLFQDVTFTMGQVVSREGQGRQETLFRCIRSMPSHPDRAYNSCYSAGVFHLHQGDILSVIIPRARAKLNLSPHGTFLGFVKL

T2: cynomolgus BLyS (full length, arginine 132 mutated to histidine) on CHO-K1 cells (cynomolgus, UniProt Q9Y275 1-285 (human entry))
T2 construct: also called cyno BLyS; CHO-K1 cynoBLyS
T2 chain: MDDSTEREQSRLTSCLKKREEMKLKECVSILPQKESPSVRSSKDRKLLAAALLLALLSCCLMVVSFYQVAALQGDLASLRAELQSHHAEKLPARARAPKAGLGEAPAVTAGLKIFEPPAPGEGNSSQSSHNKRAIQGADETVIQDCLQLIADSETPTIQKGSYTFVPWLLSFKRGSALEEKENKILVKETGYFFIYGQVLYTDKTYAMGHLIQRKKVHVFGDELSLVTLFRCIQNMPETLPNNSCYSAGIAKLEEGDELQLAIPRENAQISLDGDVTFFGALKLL


Columns and labels:
human APRIL protein [1] = target: T1, human APRIL protein; assay: ELISA, coated APRIL; antibody 0.107 nM
Experimental: (§1) To test whether the BLyS antibody cross-reacted with human APRIL protein, APRIL protein (purchased from R & D Systems) was first diluted to a final concentration of 1.0 μg/mL with PBS, and then 50 μL of which per well was aliquoted into a 96-well ELISA plate, and the plate was subsequently sealed with plastic film and incubated at 4° C. overnight. On the next day the plate was rinsed four times with the plate washing buffer [PBS buffer containing 0.0500 (v/v) Tween20] and a blocking solution [PBS buffer containing 0.05 (v/v) Tween20 and 1 (w/w) BSA] was added, then the protein was blocked at 37° C. for 2 hours. The blocking solution was removed and 100 μL per well of the lead antibodies prepared in Embodiment 1 and 2 were added in. After incubation for 1 hour at 37° C., the plate was rinsed four times with the plate washing buffer [PBS buffer containing 0.05 (v/v) Tween20]. HRP-labeled (horseradish peroxidase) secondary antibody (purchased from Sigma) was added in and incubated at 37° C. for 1 hour. The plate was then rinsed four times with the plate washing buffer [PBS buffer containing 0.050 (v/v) Tween20]. 100 μL of TMB substrate was aliquoted into each well and after incubation at room temperature for 5 minutes, 100 μL of stop solution (1.0 N HCl) was aliquoted into each well. A₄₅₀ₙₘ values were read via an ELISA plate reader (SpectraMax M5e purchased from Molecular Devices) and the results were shown in FIGS. 6A-6B and Table 11. […] As used herein, the IgG control is human IgG and the data in the table is GD number at 450 nm.

[2] = target: T2, cynomolgus BLyS (full length, arginine …); assay: flow cytometry (FACS) on CHO-K1 cynoBLyS cells, Alexa 488 secondary antibody
Experimental: (§2) The medium was aspirated completely, and the cells were rinsed once with PBS buffer (purchased from Invitrogen) and then treated with cell dispersion solution (TrypLE™ Express Enzyme, purchased from Life technology) and collected. The detailed steps are as follows: the cells were rinsed once with PBS buffer, after counting, the cells were diluted to 2×10⁶ cells/ml with PBS buffer, blocked with 2% (w/w) fetal bovine serum and incubated on ice for 30 minutes. 200 μL of which per well was aliquoted into a 96-well FACS plate and centrifuged at 2000 rpm at 4° C., then each 100 μL of the lead antibodies obtained from Embodiment 1 and 2 were aliquoted into each well and incubated on ice for 1 hour. […] After centrifuged and rinsed 3 times with FACS buffer, cells were suspended with 200 μL of FACS buffer and the results were detected and analyzed by FACS (FACS Calibur, purchased from BD). It was shown in Tables 12-13 that the lead antibody could bind to human BLyS protein on the cell surface and the lead antibody could cross-react with cynomolgus BLyS. The data in the table is MFI, the average fluorescence intensity of the cell population.

human APRIL protein [3] = target: T1, human APRIL protein; assay: ELISA, coated APRIL; antibody 0.0213 nM
Experimental: as §1

human APRIL protein [4] = target: T1, human APRIL protein; assay: ELISA: APRIL coated at 1.0 µg/mL, antibody titrated, HRP secondary antibody
Experimental: as §1

human APRIL protein [5] = target: T1, human APRIL protein; assay: ELISA, coated APRIL; antibody 66.7 nM
Experimental: as §1

human APRIL protein [6] = target: T1, human APRIL protein; assay: ELISA, coated APRIL; antibody 0 nM (blank)
Experimental: as §1

human APRIL protein [7] = target: T1, human APRIL protein; assay: ELISA, coated APRIL; antibody 13.3 nM
Experimental: as §1

[8] = target: T3, human BLyS (full length, arginine 132 mutated to histidine) on CHO-K1 cells (human, UniProt Q9Y275 1-285); assay: flow cytometry (FACS) on CHO-K1 hBLyS cells, Alexa 488 secondary antibody
T3 construct: also called hBLyS; CHO-K1 hBLyS
T3 sequence (Q9Y275 other isoform, or with tags, fused parts or gaps limits assumed, change not shown): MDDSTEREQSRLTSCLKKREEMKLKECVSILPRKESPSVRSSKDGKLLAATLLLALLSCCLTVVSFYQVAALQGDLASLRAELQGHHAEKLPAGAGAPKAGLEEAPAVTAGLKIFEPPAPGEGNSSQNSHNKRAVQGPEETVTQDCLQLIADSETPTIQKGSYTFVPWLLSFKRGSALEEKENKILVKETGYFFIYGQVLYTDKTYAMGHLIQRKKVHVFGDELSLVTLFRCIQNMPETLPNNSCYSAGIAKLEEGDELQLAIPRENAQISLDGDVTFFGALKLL
Experimental: as §2

human APRIL protein [9] = target: T1, human APRIL protein; assay: ELISA, coated APRIL; antibody 0.00427 nM
Experimental: as §1

human APRIL protein [10] = target: T1, human APRIL protein; assay: ELISA, coated APRIL; antibody 2.67 nM
Experimental: as §1

human APRIL protein [11] = target: T1, human APRIL protein; assay: ELISA, coated APRIL; antibody 0.534 nM
Experimental: as §1

biotinylated hBLyS-ECD [12] = target: T4, biotinylated hBLyS-ECD (human, UniProt Q9Y275 134-285, biotinylated with Biotin-X-X-NHS (molar ratio 7:1); sites not stated); assay: competition ELISA; competitor 8E7D9C7F5
T4 construct: also called biotinylated immunogen; biotinylated hBLvS-ECD
Experimental: (§3) The purified human BLyS antibody and hybridoma antibody were subjected to competitive enzyme-linked immunosorbent assay and the epitopes binding by different antibodies were analyzed.
(§4) Purified BLyS antibody was first diluted to a final concentration of 1.0 μg/mL with PBS, then aliquoted into a 96-well ELISA plate at 50 μL per well, and the plate was subsequently sealed with plastic film and incubated at 4° C. overnight. On the next day the plate was rinsed four times with the plate washing buffer [PBS buffer containing 0.05% (v/v) Tween20] and mixed with blocking solution [PBS buffer containing 0.05% (v/v) Tween20 and 1% (w/w) BSA], and then blocked at 37° C. for 1 hour. The blocking solution was removed, and the competitive antibody and IgG control were diluted to a final concentration of 40 μg/mL with PBS and then aliquoted into the 96-well ELISA plate at 50 μL per well. The biotinylated hBLyS-ECD was then diluted with PBS to a final concentration of 2 ng/mL and pipetted into the 96-well ELISA plate at 50 μL per well. The final concentration of competitive antibody and hBLyS-ECD was 20 μg/mL and 1 ng/mL, respectively. After incubation at 37° C. for 1 hour, the plate was rinsed four times with the plate washing buffer [PBS buffer containing 0.05% (v/v) Tween20]. 100 μL per well of HRP-labeled (horseradish peroxidase) streptavidin (purchased from Sigma) was added into the plate and the plate was incubated at 37° C. for 1 hour. The plate was then washed four times with the plate washing buffer [PBS buffer containing 0.05% (v/v) Tween20]. 100 μL of TMB substrate was aliquoted into each well and after incubation at room temperature for 5 minutes, 100 μL of stop solution (1.0 N HCl) was aliquoted into each well. A₄₅₀ₙₘ values were read by an ELISA plate reader (SpectraMax M5e, purchased from Molecular Device) and the results were shown in Tables 18A-18B. […] The data shown in the table is the inhibitory rate (%) of the binding level of the original antibody to hBLyS-ECD after addition of the competitive antibody.

biotinylated hBLyS-ECD [13] = target: T4, biotinylated hBLyS-ECD; assay: competition ELISA; competitor 111D10D6G3
Experimental: as §3, §4

biotinylated hBLyS-ECD [14] = target: T4, biotinylated hBLyS-ECD; assay: competition ELISA; competitor 93C6F10D3
Experimental: as §3, §4

biotinylated hBLyS-ECD [15] = target: T4, biotinylated hBLyS-ECD; assay: competition ELISA; competitor 35E6F7C3
Experimental: as §3, §4

biotinylated hBLyS-ECD [16] = target: T4, biotinylated hBLyS-ECD; assay: competition ELISA; competitor 78C11D2D12
Experimental: as §3, §4

biotinylated hBLyS-ECD [17] = target: T4, biotinylated hBLyS-ECD; assay: competition ELISA; competitor 97A3C2H4
Experimental: as §3, §4

biotinylated hBLyS-ECD [18] = target: T4, biotinylated hBLyS-ECD; assay: competition ELISA; competitor 67A2E1D10
Experimental: as §3, §4

| OD450 nm (human APRIL protein [1]) | EC50 (read off the curve) [2] [nM] | OD450 nm (human APRIL protein [3]) | binding result (human APRIL protein [4]) | OD450 nm (human APRIL protein [5]) | OD450 nm (human APRIL protein [6]) | OD450 nm (human APRIL protein [7]) | EC50 (read off the curve) [8] [nM] | OD450 nm (human APRIL protein [9]) | OD450 nm (human APRIL protein [10]) | OD450 nm (human APRIL protein [11]) | inhibitory rate (%) (biotinylated hBLyS-ECD [12]) | inhibitory rate (%) (biotinylated hBLyS-ECD [13]) | inhibitory rate (%) (biotinylated hBLyS-ECD [14]) | inhibitory rate (%) (biotinylated hBLyS-ECD [15]) | inhibitory rate (%) (biotinylated hBLyS-ECD [16]) | inhibitory rate (%) (biotinylated hBLyS-ECD [17]) | inhibitory rate (%) (biotinylated hBLyS-ECD [18]) | Binder |
| --- | --- | --- | --- | --- | --- | --- | --- | --- | --- | --- | --- | --- | --- | --- | --- | --- | --- | --- |
| 0.0548 | ~0.7 | 0.0547 | no binding (tested: 66.7 nM) | 0.196 | 0.0655 | 0.0973 | ~0.7 | 0.0578 | 0.0614 | 0.0565 | – | – | – | – | – | – | – | 89A2G5E7 (antibody, V domains shown, Mouse hybridoma antibody purified on Protein G) VH: QVQLKESGPGLVAPSQSLSITCTVSGLSLNSHDISWIRQPPGKGLEWLGVIWSGGGTKYNSAFMSRLSISKDNSKSQVFLKMNSLHTDDTAIYYCVRTPSMITYSAMDYWGQGTSVTVSS VL: EIVLTQSPALMAASPGEKVTITCSVSSSISSRNLHWYQQKSQTSPKAWIHATSNLASGVPVRFSGSGSGTSYSLTISSMEAEDAATYYCQQWSSYPLTFGSGTKLEIK |
| – | – | – | – | – | – | – | – | – | – | – | 92 | 96 | 85 | 40 | 94 | 89 | 96 | 8E7D9C7F5 (antibody, V domains shown, Mouse hybridoma antibody purified on Protein G) VH: QVQLQQSGVELARPGASVKLSCKASGYTFTSYGISWVKQRTGQALEWIGEIYPRSGNTYYNEKFKGKATLTADKSSSTAYMELRSLTSEDSAVYFCARSGPITTLVATDYGMDYWGQGTSVTVSS VL: DIVLTQSPASLAVSLGQRATISCRASKSVSTSSYSYMHWYQQKPGQPPKLLIKFASNLESGVPARFSGSGSGTDFTLNIHPVEEEDAATYYCQHSREFPYTFGGGTKLEIK |
| 0.0699 | ~0.1 | 0.0733 | no binding (tested: 66.7 nM) | 0.296 | 0.0847 | 0.137 | ~0.09 | 0.107 | 0.0901 | 0.0668 | – | – | – | – | – | – | – | 2-1G11 (antibody, human IgG1, V domains shown) VH: EVQLVESRGGVVQPGRSLRLSCAASGFTFSSYGMHWVRQAPGKGLEWVAVISYDGSNKYYADSVKGRFTISRDNSKNTLYLQMNSLRAEDAAVYYCARDRVDILTGYSIYGMDVWGQGTTVTVSS VL: EIVMTQSPATLSLSPGERATLSCRASQSVSSYLAWYQQKPGQAPRLLIYDASKRATGIPARFSGSGSGTDFTLTISSLEPEDFAVYYCQQRSNWPLTFGGGTKVEIK |
| 0.0549 | ~0.2 | 0.0534 | no binding (tested: 66.7 nM) | 0.138 | 0.0565 | 0.0703 | ~0.2 | 0.0564 | 0.0613 | 0.0553 | – | – | – | – | – | – | – | 78C11D2D12 (antibody, V domains shown, Mouse hybridoma antibody purified on Protein G) VH: QVQLQQSGAELVRPGTSVKISCKASGYAFTNYWLGWVKQRPGHGLEWIGDIYPGSGNTYYNEKFKGKATLTADKSSSTAYMQLSSLTSEDSAVFFCAAYLYAMDYWGQGTSVTVSS VL: QIVLTQSPAIMSASPGEKVTITCSASSSVSYMHWFQQKPGTSPKLWIYSASNLASGVPARFSGSGSGTSYSLTISRMEAEDAATYYCQQRGSYPFTFGSGTKLEIK |
| 0.0537 | ~0.7 | 0.0532 | no binding (tested: 66.7 nM) | 0.0703 | 0.0542 | 0.0567 | – | 0.0553 | 0.0561 | 0.0544 | – | – | – | – | – | – | – | 35E6F7C3 (antibody, V domains shown, Mouse hybridoma antibody purified on Protein G) VH: EVQLQQSGAELVKPGASVKLSCTAAGFNIQDTYIHWVKQRPEQGLEWIGRIDPANANTVYDPKFQGKATITADTSSNTAYLQVSSLTSEDTAVYYCASPVITAGFAYWGQGTLVTVSA VL: QIVLTQSPAIMSASPGEKVTMTCGASSSVNYVHWYQQKSGTSPKRWIYDTSKLASGVPARFSGSGSGTSYSLTISSMEAEDAATYYCQQWTRSPLTFGAGTKVELK |
